Source: patent publication US20260115255A1 (CYTUNE PHARMA, published 2026)
Changes are numbered by the printed parent chain.

B1: hCl1a (antibody)
chain 1: not shown
chain 2: DIQMTQSPSSLSASVGDRVTITCRASEDIYSNLAWYQQKPGKAPKLLIFSVKRLQDGVPSRFSGSGSGTDFTLTISSLQPEDFATYYCLQGSNFPLTFGQGTKVEIKRTVAAPSVFIFPPSDEQLKSGTASVVCLLNNFYPREAKVQWKVDNALQSGNSQESVTEQDSKDSTYSLSSTLTLSKADYEKHKVYACEVTHQGLSSPVTKSFNRGEC
B2: hCl1a AAA-RLI DANA afuc (other)
heavy 1: QVQLVQSGAEVKKPGASVKVSCKASGYTFTDYAMHWVRQAPGQRLEWMGWINTYTGKPTYAQKFQGRVTITRDTSASTAYMELSSLRSEDTAVYYCARAVFYGYTMDAWGQGTLVTVSSASTKGPSVFPLAPSSKSTSGGTAALGCLVKDYFPEPVTVSWNSGALTSGVHTFPAVLQSSGLYSLSSVVTVPSSSLGTQTYICNVNHKPSNTKVDKKVEPKSCDKTHTCPPCPAPELLGGPSVFLFPPKPKDTLMISRTPEVTCVVVDVSHEDPEVKFNWYVDGVEVHNAKTKPREEQYNATYRVVSVLTVLHQDWLNGKEYKCKVSNKALPAPIAATISKAKGQPREPQVYTLPPSRDELTKNQVSLWCLVKGFYPSDIAVEWESNGQPENNYKTTPPVLDSDGSFFLYSKLTVDKSRWQQGNVFSCSVMHEALHNHYTQKSLSLSPGITCPPPMSVEHADIWVKSYSLYSRERYICNSGFKRKAGTSSLTECVLNKATNVAHWTTPSLKCIRDPALVHQRPAPPSGGSGGGGSGGGSGGGGSGGNWVNVISDLKKIEDLIQSMHIDATLYTESDVHPSCKVTAMKCFLLELQVISLESGDASIHATVEALIILANNSLSSNAQVTESGCKECEELEEKNIKEFLQSFVHIVQMFINTS
heavy 2: QVQLVQSGAEVKKPGASVKVSCKASGYTFTDYAMHWVRQAPGQRLEWMGWINTYTGKPTYAQKFQGRVTITRDTSASTAYMELSSLRSEDTAVYYCARAVFYGYTMDAWGQGTLVTVSSASTKGPSVFPLAPSSKSTSGGTAALGCLVKDYFPEPVTVSWNSGALTSGVHTFPAVLQSSGLYSLSSVVTVPSSSLGTQTYICNVNHKPSNTKVDKKVEPKSCDKTHTCPPCPAPELLGGPSVFLFPPKPKDTLMISRTPEVTCVVVDVSHEDPEVKFNWYVDGVEVHNAKTKPREEQYNATYRVVSVLTVLHQDWLNGKEYKCKVSNKALPAPIAATISKAKGQPREPQVYTLPPSRDELTKNQVSLSCAVKGFYPSDIAVEWESNGQPENNYKTTPPVLDSDGSFFLVSKLTVDKSRWQQGNVFSCSVMHEALHNHYTQKSLSLSPG
light: B1 chain 2
modifications: Afucosylated Fc N-glycan (N297, both heavy chains); the letters cannot carry it.
notes: Same chains as m6, afucosylated; copies: 1 + 1 + 2
B3: hCl1a DLE-RLI DANA afuc (other)
heavy 1: B2 heavy 1 with S241D, A300S, A332L, I334E, A335E, A336K
heavy 2: B2 heavy 2 with S241D, A300S, A332L, I334E, A335E, A336K
light: B1 chain 2
modifications: Afucosylated Fc N-glycan (N297, both heavy chains); the letters cannot carry it.
notes: Same chains as m4, afucosylated; copies: 1 + 1 + 2
B4: hCl1a DLE-RLI DANA (other)
heavy 1: B2 heavy 1 with S241D, A300S, A332L, I334E, A335E, A336K
heavy 2: B2 heavy 2 with S241D, A300S, A332L, I334E, A335E, A336K
light: B1 chain 2
notes: also called SOT202-DLE-DANA; copies: 1 + 1 + 2
B5: hCl1a AAA-RLI DANA (other)
heavy 1: B2 heavy 1
heavy 2: B2 heavy 2
light: B1 chain 2
notes: See note of m4; also called SOT202-AAA-DANA; copies: 1 + 1 + 2

Target: T1, FcγRIIIa F158 (human, UniProt P08637 17-208)
T1 construct: Captured on the chip through an anti-His tag antibody; construct not described; also called hFcγRIIIaF158; CD16a F158
Test: SPR; ratio of affinity (1/Kd) for FcγRIIIa F158 to affinity for FcγRIIb
Procedure: (§1) SPR experiments were performed on a Biacore 8K (Cytiva, Chicago, IL, USA), using CM5 sensor chips (Cytiva) with an immobilization using THE His tag antibodies (Genscript). FcγRIIIa V158, FcγRIIIa F158 or FcγRIIb protein were used for capture with a contact time of 30 sec at a flow rate of […] in a 1×HBS-EP+ running buffer. Association/dissociation rates were measured for each tested immunocytokine at a flow rate of 30 μl/min with concentration serial dilution in a suitable range with an association time/dissociation time of 300 s/300 s except for constructs with DLE and DE with and without afucosylation, where association/dissociation time of 120 s/1200 s was applied.

First: B1
Second: B2
The “A/I (F158)” value of the first is lower: 20.6 for the first, 380 for the second.

Compared with B3, B4 is lower in “A/I (F158)” value: 9370 for the first, 228 for the second.

B5 was tested, and the “A/I (F158)” value was 244.

Target: T2, FcγRIIIa V158 (human, UniProt P08637 17-208)
T2 construct: Captured on the chip through an anti-His tag antibody, so it carries a His tag; construct not described; also called hFcγRIIIaV158; FcγIIIa V158
Test: SPR; ratio of affinity (1/Kd) for FcγRIIIa V158 to affinity for FcγRIIb
Procedure: as §1

Compared with B1, B2 is higher in “A/I (V158)” value: 83.8 for the first, 1010 for the second.

First: B3
Second: B4
The “A/I (V158)” value of the first is higher: 13700 for the first, 464 for the second.

B5 was tested, and the “A/I (V158)” value was 691.
